The source of these data is the supplement of paper PMC10567573.

B1: FLOT1 (parent)
chain: QMAKKAEAFQLYQEAAQLDMLLEK
B2: TRIM15 (parent)
chain: LSQMGAQSSGKILLCPLCQEEEQA
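Also: lentivirally expressed fusions sorted by FACS into six bins by GFP to DsRed ratio, PSI derived from sequencing read proportions per bin multiplied by bin number.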

One series covers variants of B1. Put plainly: protein stability index of a GFP-peptide fusion (GPS, HEK-293T) (PSI 1-6); higher = more stable. Conditions: c terminus: a fixed tail appended.
Consider QMAKKAEAFQLYQEAAVLDMLLEK [Q17V], for which the protein stability index was 1.14.
Still for that read-out and setting: the same measure for QMAKKAEAFQLYQEAAPLDMLLEK [Q17P]: 3.95.
Take QMAKKAEAFQLYQEAADLDMLLEK [Q17D]: the protein stability index was found to be 3.81.
Still for that read-out and setting: the value for QMAKKAEAFQLYQEAAMLDMLLEK [Q17M] was 1.02.
Still for that read-out and setting: the same measure for QMAKKAELFQLYQEAAQLDMLLEK [A8L]: 2.55.
Still for that read-out and setting: the value for QMAKKAEMFQLYQEAAQLDMLLEK [A8M] was 2.88; that for QMAKKAEIFQLYQEAAQLDMLLEK [A8I] was 2.05.
Take QMAKKAEEFQLYQEAAQLDMLLEK [A8E]: the protein stability index was 2.49.
The same measure, in the same setting: the same measure for QMAKKAEYFQLYQEAAQLDMLLEK [A8Y]: 1.03.
Turning to QMAKKAETFQLYQEAAQLDMLLEK [A8T], the protein stability index was 1.83.
Still for that read-out and setting: the same measure for QMAKKAEHFQLYQEAAQLDMLLEK [A8H]: 1.42.
The same measure, in the same setting: the same measure for QMAKKAPAFQLYQEAAQLDMLLEK [E7P]: 2.07.
Same read-out and setting: the same measure for QMAKKAYAFQLYQEAAQLDMLLEK [E7Y]: 1.8; for QMAKKAAAFQLYQEAAQLDMLLEK [E7A]: 2.46.
On to QMAKKACAFQLYQEAAQLDMLLEK [E7C], for which the protein stability index was determined as 1.86.
On the same count and under the same terms, the same measure for QMAKKAIAFQLYQEAAQLDMLLEK [E7I]: 1.4.
Same read-out and setting: the same measure for QMAKKANAFQLYQEAAQLDMLLEK [E7N]: 2.05; for QMAKKKEAFQLYQEAAQLDMLLEK [A6K]: 2.43; for QMAKKTEAFQLYQEAAQLDMLLEK [A6T]: 1.38.
On to QMAKKEEAFQLYQEAAQLDMLLEK [A6E], for which the protein stability index was determined as 1.92.
On the same count and under the same terms, the same measure for QMAKKPEAFQLYQEAAQLDMLLEK [A6P]: 2.37.
Still for that read-out and setting: the value for QMAKKAEAFQLYQIAAQLDMLLEK [E14I] was 3.03; that for QMAKKAEAFQLYQDAAQLDMLLEK [E14D] was 2.13; that for QMAKKAEAFQLYQTAAQLDMLLEK [E14T] was 1.97.
Same read-out and setting: the value for QMAKKAEAFQLYQLAAQLDMLLEK [E14L] was 1.97; that for QMAKKAEAFDLYQEAAQLDMLLEK [Q10D] was 2.01; that for QMAKKAEAFLLYQEAAQLDMLLEK [Q10L] was 2.09.
Regarding QMAKKAEAFVLYQEAAQLDMLLEK [Q10V], the protein stability index was 2.87.
Same read-out and setting: the same measure for QMAKKAEAFKLYQEAAQLDMLLEK [Q10K]: 1.32; for QMAKKAEAFSLYQEAAQLDMLLEK [Q10S]: 2.06.
Still for that read-out and setting: the value for QMAKKAEAFQLYQEAAQLWMLLEK [D19W] was 1.34.
For the variant QMAKKAEAFQLYQEAAQLMMLLEK [D19M], the protein stability index is 2.85.
Turning to QMAKKAEAFQLYQEAAQLHMLLEK [D19H], the protein stability index was found to be 1.8.
The same measure, in the same setting: the value for QMAKKAEAFQLYQEAAQLCMLLEK [D19C] was 2.13.
For QMAKKAEAFQLYQEAAQLRMLLEK [D19R], the protein stability index came to 1.53.
On the same count and under the same terms, the same measure for QMAKKAEAFQLYQEAAQLIMLLEK [D19I]: 1.5.
The same measure, in the same setting: the value for QMAKKAEAFQLYQEAAQLGMLLEK [D19G] was 1.48; that for QMAKKAEAFQLYQEAAQLFMLLEK [D19F] was 1.69.
Still for that read-out and setting: the same measure for QMAKKAEAFQLYQEAAQLTMLLEK [D19T]: 2.66.
QMAKKAEAFQLYQEAAQLKMLLEK [D19K]: the protein stability index was 1.65.
On the same count and under the same terms, the value for QMAKKAEAFQLYQEAAQLDMLLES [K24S] was 3.36.
Same read-out and setting: the value for QMAKKAEAFQLYQEAAQLDMLLEV [K24V] was 1.73; that for QMAKKAEAFQLYQEAAQLDMLLEF [K24F] was 2.2.
With QMAKKAEAFQLYQEAAQLDMLLEM [K24M], the protein stability index came to 2.23.
Same read-out and setting: the same measure for QMAKKAEAFQLYQEAAQLDMLLEG [K24G]: 2.89; for QMAKKAEAFQLYQEAAQLDMLLEL [K24L]: 2.08; for QMAKKAEAFQLYQEAAQLDMLLEE [K24E]: 4.03.
Turning to NMAKKAEAFQLYQEAAQLDMLLEK [Q1N], the protein stability index is 1.8.
The same measure, in the same setting: the same measure for RMAKKAEAFQLYQEAAQLDMLLEK [Q1R]: 1.69; for PMAKKAEAFQLYQEAAQLDMLLEK [Q1P]: 2.05.
Still for that read-out and setting: the same measure for AMAKKAEAFQLYQEAAQLDMLLEK [Q1A]: 2.01.
Same read-out and setting: the same measure for EMAKKAEAFQLYQEAAQLDMLLEK [Q1E]: 2.19.
Regarding YMAKKAEAFQLYQEAAQLDMLLEK [Q1Y], the protein stability index stood at 2.96.
Same read-out and setting: the same measure for TMAKKAEAFQLYQEAAQLDMLLEK [Q1T]: 2.27; for HMAKKAEAFQLYQEAAQLDMLLEK [Q1H]: 2.21; for SMAKKAEAFQLYQEAAQLDMLLEK [Q1S]: 3.78.
On the same count and under the same terms, the same measure for QMAKKAEAFQLYQEAAQLDMLWEK [L22W]: 1.5.
Still for that read-out and setting: the same measure for QMAKKAEAFQLYQEAAQLDMLQEK [L22Q]: 2.08; for QMAKKAEAFQLYQEAAQLDMLIEK [L22I]: 1.72.
As for QMAKKAEAFQLYQEAAQLDMLDEK [L22D], the protein stability index was 2.54.
The same measure, in the same setting: the value for QMAKKAEAFQLYQEAAQLDMLPEK [L22P] was 3.9; that for QMAKKAEAFQLYQEAAQLDMLEEK [L22E] was 1.61; that for QMAKKAEAFQLYQEAAQLDMLNEK [L22N] was 2.03.
With QMAKKAEAFQGYQEAAQLDMLLEK [L11G], the protein stability index was 1.76.
Same read-out and setting: the value for QMAKKAEAFQIYQEAAQLDMLLEK [L11I] was 2.85; that for QMAKKAEAFQHYQEAAQLDMLLEK [L11H] was 3.32; that for QMAKKAEAFQPYQEAAQLDMLLEK [L11P] was 4.05.
Same read-out and setting: the same measure for QMAKKAEAFQKYQEAAQLDMLLEK [L11K]: 3.17; for QMAKKAEAFQAYQEAAQLDMLLEK [L11A]: 2.03; for QMAKKAEAFQSYQEAAQLDMLLEK [L11S]: 2.23.
Still for that read-out and setting: the same measure for QMAKKAEAFQMYQEAAQLDMLLEK [L11M]: 1.59; for QMAKKAEAFQEYQEAAQLDMLLEK [L11E]: 3.48; for QMAKKAEAFQVYQEAAQLDMLLEK [L11V]: 2.98.
As for QMAKKAEAFQLYQEAAQMDMLLEK [L18M], the protein stability index is 2.22.
Regarding QMAKKAEAFQLYQEAAQDDMLLEK [L18D], the protein stability index came out at 3.52.
On the same count and under the same terms, the value for QMAKKAEAFQLYQEAAQEDMLLEK [L18E] was 3.61.
As to QMAKKAEAFQLYQEAAQSDMLLEK [L18S], the protein stability index is 2.51.

A further series covers variants of B2. The series is described as above. Conditions: c terminus: a fixed tail appended.
Take LSQMGAQSSGKILLCPLCQEEEQK [A24K]: the protein stability index came out at 4.51.
Still for that read-out and setting: the same measure for LSQMGAQSSGKILLCPLCQEEEQI [A24I]: 3.87; for LSQMGAQSSGKILLCPLCQEEEQH [A24H]: 3.59.
Same read-out and setting: the same measure for LSQMGAQSSGKILLCPLCQEEEQV [A24V]: 3.28; for LSQMGAQSSGKILLCPLCQEEEQP [A24P]: 3.45.
The same measure, in the same setting: the value for LSQMGAQSSGKILLCPLCQEEEQT [A24T] was 3.72; that for LSQMGAQSSGKILLCPLCQEEEQF [A24F] was 2.55.
Take LSQMGAQSSGKILLCPLCQEEEQL [A24L]: the protein stability index stood at 2.63.
Still for that read-out and setting: the value for LSQMGAQSSGKILLCPLCQEEEQG [A24G] was 3.51; that for LSQMGAQSSGKILLCPLCQEEEQY [A24Y] was 3.55; that for LSQMGAQSSGKILLCPLCQEEEQW [A24W] was 2.44.
As for LSQMGAQSSGKILLCPLCQEEEQE [A24E], the protein stability index came to 3.29.
The same measure, in the same setting: the value for LSQMGAQSSGKILLCPLCQEEEQQ [A24Q] was 4.37; that for LSQMGAQSSGKILLCPLCQEEEQM [A24M] was 2.84.
On to LSQMGAQSSGKILLCPLCQEEEQN [A24N], for which the protein stability index was determined as 3.88.
As for LSQMGAQSSGKILLCPLCQEEEQS [A24S], the protein stability index turned out to be 3.94.
Same read-out and setting: the same measure for LSQMGAQSSGKILLCPLCQEEEQR [A24R]: 2.99.
